Experimental data taken from patent US5817490A, “Enzymatic process for the manufacture of ascorbic acid 2-keto-L-gulonic acid and esters of 2-keto-L-gulonic acid” (Eastman Chemical Company, priority 1997, dated 1998).
Read-outs that look alike come from different tables or passages of the source.

Tests used:
[1] = format: physicochemical
Method: HPLC sample standards were prepared by dissolving KLG, MeKLG, ascorbic acid (ASA), and butyl-KLG to the appropriate concentration in water. Samples of these standards were placed in filled and sealed vials, stored at room temperature, and analyzed periodically. The HPLC was calibrated on the area response for standards that were injected onto the HPLC as soon as possible after the preparation of the standards.

[2] = enzyme screen for hydrolysis/methanolysis of butyl-KLG (HPLC of products and remaining substrate); format: biochemical; parameters: KLG formed / MeKLG formed / ASA formed / BuKLG (remaining substrate): unit: ppm
Method: (§1) Initial enzyme screens were carried out as follows. Enzyme (typically 10 mg), aqueous buffer (typically 860 microliters (ul) or 550 ul), aqueous 0.2M CaCl2 (10 ul), methanol (typically 90 ul or 400 ul), and an aqueous solution of substrate (typically 90 ul of butyl-KLG at a typical concentration of 110,000 ppm) were added to a 2 ml polypropylene centrifuge tube. The resulting solution was vortexed briefly and placed on a shaker bath at 300 rpm at 38° C. (typically for 18 hours or more). After incubation, samples were centrifuged at 14,000 G's (14,000 times gravity) for 20 minutes to remove enzyme, sampled (300 ul), and diluted to one milliliter with distilled water. If not analyzed by HPLC within the day, samples were frozen prior to analysis.
The data were reported in terms of parts per million of KLG, MeKLG, ascorbic acid (ASA) and butyl-KLG. […] Samples labeled as "no enzyme" were controls within a given run. The controls contained substrate but no enzyme and thus represented experimental and HPLC background data.

[3] = enzyme screen for methanolysis of KLG; format: biochemical; parameters: unit not given here; conditions: Table 14: 38° C., 19 Hours, 8.6% Methanol-Water, 0.2M MES Buffer
Method: as §1

[4] = Table 5: 38° C., 19 Hours, 38% Methanol-Water, 0.1 M MES Buffer
[5] = Table 6: 38°, 19 Hours, 8.6% Methanol-Water, 0.1 M MES
[6] = Example 9: 8.6% methanol-water, 0.2M MES
[7] = Table 3: 38° C., 16 Hours, 38% Methanol-Water, 0.1M MES Buffer
[8] = Table 4: 38° C., 47.5 Hours, 38% Methanol-Water, 0.1M MES Buffer
[9] = Table 7: 38° C., 19 Hours, 8.6% Methanol-Water, 0.1M MES
[10] = Table 8: 38° C., 21 Hours, 8.6% Methanol-Water, 0.2 M MES
[11] = Table 9: 38° C., 19 Hours, 8.6% Methanol-Water, 0.2M MES Buffer
[12] = Table 10: 38° C., 19 Hours, 38% Methanol-Water, 0.2M MES Buffer
[13] = Table 11: 38° C., ca. 19 Hours, 8.6% Methanol-Water, 0.2M Pyridine/Pyridinium Hydrochloride
[14] = Table 12: 38° C., ca. 19 Hours, 38% Methanol-Water, 0.2M pyridine buffer, pH 4.7 to 5.1
[15] = Table 13: 38° C., 20 Hours, 8.6% Methanol-Water, pH 2.3, 0.2M Phosphate Buffer

O=C1O[C@H]([C@@H](O)CO)C(O)=C1O [ASA, ascorbic acid]
Amount Found ([1]; 50 ppm standard, 0 minutes): 53.4 ppm
Amount Found ([1]; 50 ppm standard, 400 minutes): 28.3 ppm
Amount Found ([1]; 50 ppm standard, 715 minutes): 0 ppm
Amount Found ([1]; 100 ppm standard, 0 minutes): 107 ppm
Amount Found ([1]; 100 ppm standard, 400 minutes): 96.6 ppm
Amount Found ([1]; 100 ppm standard, 715 minutes): 57.2 ppm
Amount Found ([1]; 500 ppm standard, 0 minutes): 534 ppm
Amount Found ([1]; 500 ppm standard, 400 minutes): 487 ppm
Amount Found ([1]; 500 ppm standard, 715 minutes): 473 ppm

O=C(O)C(=O)[C@@H](O)[C@H](O)[C@@H](O)CO [KLG, 2-keto-L-gulonic acid]
Amount Found ([1]; 50 ppm standard, 0 minutes): 51 ppm
Amount Found ([1]; 50 ppm standard, 400 minutes): 39.9 ppm
Amount Found ([1]; 50 ppm standard, 715 minutes): 52 ppm
Amount Found ([1]; 100 ppm standard, 0 minutes): 102 ppm
Amount Found ([1]; 100 ppm standard, 400 minutes): 94.3 ppm
Amount Found ([1]; 100 ppm standard, 715 minutes): 81.8 ppm
Amount Found ([1]; 500 ppm standard, 0 minutes): 510 ppm
Amount Found ([1]; 500 ppm standard, 400 minutes): 479 ppm
Amount Found ([1]; 500 ppm standard, 715 minutes): 493 ppm

COC(=O)C(=O)[C@@H](O)[C@H](O)[C@@H](O)CO [MeKLG, methyl-2-keto-L-gulonate]
Amount Found ([1]; 50 ppm standard, 0 minutes): 51.4 ppm
Amount Found ([1]; 50 ppm standard, 400 minutes): 47.7 ppm
Amount Found ([1]; 50 ppm standard, 715 minutes): 43 ppm
Amount Found ([1]; 100 ppm standard, 0 minutes): 103 ppm
Amount Found ([1]; 100 ppm standard, 400 minutes): 106.8 ppm
Amount Found ([1]; 100 ppm standard, 715 minutes): 90.2 ppm
Amount Found ([1]; 500 ppm standard, 0 minutes): 514 ppm
Amount Found ([1]; 500 ppm standard, 400 minutes): 496 ppm
Amount Found ([1]; 500 ppm standard, 715 minutes): 495 ppm

B1: Hog Pancreatic Lipase: Hog Pancreatic Lipase, Fluka (protein, UniProt P00591 1-450, looked up)
Pancreatic triacylglycerol …: SEVCFPRLGCFSDDAPWAGIVQRPLKILPWSPKDVDTRFLLYTNQNQNNYQELVADPSTITNSNFRMDRKTRFIIHGFIDKGEEDWLSNICKNLFKVESVNCICVDWKGGSRTGYTQASQNIRIVGAEVAYFVEVLKSSLGYSPSNVHVIGHSLGSHAAGEAGRRTNGTIERITGLDPAEPCFQGTPELVRLDPSDAKFVDVIHTDAAPIIPNLGFGMSQTVGHLDFFPNGGKQMPGCQKNILSQIVDIDGIWEGTRDFVACNHLRSYKYYADSILNPDGFAGFPCDSYNVFTANKCFPCPSEGCPQMGHYADRFPGKTNGVSQVFYLNTGDASNFARWRYKVSVTLSGKKVTGHILVSLFGNEGNSRQYEIYKGTLQPDNTHSDEFDSDVEVGDLQKVKFIWYNNNVINPTLPRVGASKITVERNDGKVYDFCSQETVREEVLLTLNPC
ASA formed [2, 4]: 130 ppm
BuKLG (remaining substrate) [2, 4]: 11114 ppm
KLG formed [2, 4]: 58 ppm
MeKLG formed [2, 4]: 529 ppm
ASA formed [2, 5]: 158 ppm
BuKLG (remaining substrate) [2, 5]: 5284 ppm
KLG formed [2, 5]: 890 ppm
MeKLG formed [2, 5]: 791 ppm

B2: Pig Liver Esterase: pig liver esterase (a hydrolase) (protein)
chain: MWLLPLVLTSLASSATWAGQPASPPVVDTAQGRVLGKYVSLEGLAFTQPVAVFLGVPFAKPPLGSLRFAPPQPAEPWSFVKNTTSYPPMCCQDPVVEQMTSDLFTNFTGKERLTLEFSEDCLYLNIYTPADLTKRGRLPVMVWIHGGGLVLGGAPMYDGVVLAAHENFTVVVVAIQYRLGIWGFFSTGDEHSRGNWGHLDQVAALHWVQENIANFGGDPGSVTIFGESFTAGGESVSVLVLSPLAKNLFHRAISESGVALTVALVRKDMKAAAKQIAVLAGCKTTTSAVFTFVHCLRQKSEDELLDLTLKMKFLTLDFHGDQRESHPFLPTVVDGVLLPKMPEEILAEKDFTFNTVPYIVGINKQEFGWLLPTMMGFPLSEGKLDQKTATSLLWKSYPIANIPEELTPVATFTDKYLGGTDDPVKKKDLFLDLMGDVVFGVPSVTVARQHRDAGAPTYMYEFQYRPSFSSDKFTKPKTVIGDHGDEIFSVFGFPLLKGDAPEEEVSLSKTVMKFWANFARSGNPNGEGLPHWPFTMYDQEEGYLQIGVNTQAAKRLKGEEVAFWNDLLSKEAAKKPPKIKHAEL
levels of activity / conversion of butyl-KLG ([2]; Example 3: 38% methanol-water, MES, pH 4.8 to 5.8): particularly high levels of activity
levels of activity / conversion of butyl-KLG ([2]; Example 4: 38% methanol-water, MES, pH 5 to 5.8): particularly high levels of activity
levels of activity / conversion of butyl-KLG ([2]; Example 7: 8.6% methanol-water, MES, pH approximately 5 to 6): particularly high levels of activity
levels of activity / conversion of butyl-KLG ([2]; Example 8: 8.6% methanol-water, MES, pH approximately 5.8 to 6.2): particularly high levels of activity
conversions to ascorbic acid [2, 6]: significant conversions to ascorbic acid
selectivity (transesterification) [2, 6]: selectivity toward transesterification
levels of activity / conversion of butyl-KLG ([2]; Example 9: 8.6% methanol-water, 0.2M MES, pH approximately 5.6 to 6): particularly high levels of activity
levels of activity / conversion of butyl-KLG ([2]; Example 10: 38% methanol-water, 0.2M MES, pH approximately 5.6 to 6.2): Decreased, although still appreciable, activity
levels of activity / conversion of butyl-KLG ([2]; Example 11: 8.6% methanol-water, pyridine buffer, pH approximately 4.9 to 5.3): particularly high levels of activity
ASA formed [2, 7]: 294 ppm
BuKLG (remaining substrate) [2, 7]: 5711 ppm
KLG formed [2, 7]: 446 ppm
MeKLG formed [2, 7]: 4377 ppm
ASA formed [2, 8]: 246 ppm
BuKLG (remaining substrate) [2, 8]: 1368 ppm
KLG formed [2, 8]: 705 ppm
MeKLG formed [2, 8]: 2720 ppm
ASA formed [2, 9]: 423
BuKLG (remaining substrate) [2, 9]: 10
KLG formed [2, 9]: 2726
MeKLG formed [2, 9]: 3731
ASA formed [2, 10]: 717 ppm
BuKLG (remaining substrate) [2, 10]: 83 ppm
KLG formed [2, 10]: 2373 ppm
MeKLG formed [2, 10]: 4167 ppm
ASA formed [2, 11]: 650 ppm
BuKLG (remaining substrate) [2, 11]: 0 ppm
KLG formed [2, 11]: 1947 ppm
MeKLG formed [2, 11]: 4258 ppm
ASA formed [2, 12]: 173 ppm
BuKLG (remaining substrate) [2, 12]: 7030 ppm
KLG formed [2, 12]: 203 ppm
MeKLG formed [2, 12]: 1654 ppm
ASA formed [2, 13]: 37 ppm
BuKLG (remaining substrate) [2, 13]: 390 ppm
KLG formed [2, 13]: 1613 ppm
MeKLG formed [2, 13]: 5787 ppm
ASA formed [2, 14]: 0
BuKLG (remaining substrate) [2, 14]: 11750
KLG formed [2, 14]: 47
MeKLG formed [2, 14]: 197
ASA formed [2, 15]: 0
BuKLG (remaining substrate) [2, 15]: 9500
KLG formed [2, 15]: 417
MeKLG formed [2, 15]: 93
ASA formed [3]: 0
BuKLG [3]: 0
KLG (remaining substrate) [3]: 4393
MeKLG formed [3]: 0
